Measurements taken from patent US6403765B1, “Truncated Apaf-1 and methods of use thereof” (Thomas Jefferson University, priority 1998, dated 2002).
Changes are numbered by the printed parent chain. Numbers in names are those of the source.

T1: procaspase-9 (Homo sapiens, UniProt P55211)
T1 construct: schematic representation of full length procaspase-9; made in house; host or cells: coupled in vitro transcription/translation in rabbit reticulocyte lysate (TNT Kit, Promega)
T1 sequence (P55211 1-416): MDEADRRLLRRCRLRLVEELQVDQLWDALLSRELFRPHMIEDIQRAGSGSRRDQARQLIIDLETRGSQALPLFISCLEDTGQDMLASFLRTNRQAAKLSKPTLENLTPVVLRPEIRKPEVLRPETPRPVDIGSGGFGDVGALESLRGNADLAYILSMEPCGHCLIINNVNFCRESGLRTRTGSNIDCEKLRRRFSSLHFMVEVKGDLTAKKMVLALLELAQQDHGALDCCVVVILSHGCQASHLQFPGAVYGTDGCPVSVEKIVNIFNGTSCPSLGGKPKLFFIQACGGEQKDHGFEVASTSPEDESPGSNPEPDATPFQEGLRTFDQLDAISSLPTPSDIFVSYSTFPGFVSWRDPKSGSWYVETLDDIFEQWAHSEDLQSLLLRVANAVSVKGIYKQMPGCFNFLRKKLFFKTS

B1: WT procaspase-9: non-fusion wild type procaspase-9 (protein)
chain: T1 sequence (P55211 1-416)
B2: Caspase-9-DN: dominant negative procaspase-9-C287A mutant (protein)
chain: T1 sequence (P55211 1-416) with C287A

Tests used:
procaspase-9 [1] = assay: Autoprocessing of in vitro translated procaspase-9 and Fc-fusion procaspase-9 variants; type: biochemical; settings: 35S-labeled, FIG. 9
Text: (§1) ^35S-labeled caspases were obtained by in vitro translation in the presence of ^35S-methionine using a coupled transcription/translation system in rabbit reticulocyte lysate using TNT Kit (Promega) according to the manufacturer's recommendations.
Artificially-induced oligomerization of procaspase-1 or procaspase-8 by overexpression or by heterologous-inducible oligomerization systems causes their autocatalytic processing/activation (Gu et al., EMBO 14:1923-1931, 1995; Muzio et al., J. Biol. Chem. 273:2926-2930, 1998; Yang et al., Mol. Cell 1:319-325, 1998). To test if procaspase-9 can also be activated by heterologous oligomerization, WT and the C287A mutant procaspase-9 was fused to the mouse IgG-Fc portion which can form spontaneous dimers by intermolecular disulfide linkages. FIG. 9 depicts processing of non-fusion WT procaspase-9 (pcasp-9, lane 1) or C-terminal Fc-fusion WT (pcasp-9-Fc, lane 2) or C287A (active site) mutant (pcasp-9-C287A-Fc, lane 3) procaspase-9 which were in vitro translated in the presence of ^35S-methionine and then analyzed by SDS-PAGE and autoradiography.

MCF-7 cells [2] = assay: Induction of apoptosis in MCF-7 cells transfected with procaspase-9 variants; type: cell-based; settings: overexpression, 30 hours after transfection, FIG. 10
Text: (§2) To express the caspases or truncated Apaf-1 in mammalian cells and assay their apoptotic activity, they were amplified with the T7-tag primer and reverse primers using the pET28a constructs as templates, and subcloned into the mammalian double expression vector pRSC-LacZ (MacFarlane et al., J. Biol. Chem., 272:25417-25420, 1997; Tsang et al., Bio/Technology, 22:68, 1997) or as previously described (Li et al., Cell 91:479-489, 1997; Srinivasula et al., J. Biol. Chem., 272:18452-18545, 1997). This vector allows the expression of lacZ under the Rous Sarcoma virus promoter, and the test cDNA under the CMV promoter. To assay for apoptosis, MCF-7 or 293 cells were transfected, using the method commercially available as the Lipofect Amine method (Life Technologies, Inc.), with the pRSC-LacZ constructs in the presence or absence of different apoptosis-inhibitors. 30 h after transfection cells were stained with β-galactosidase and examined for morphological signs of apoptosis. The percentage of round blue apoptotic cells (mean±SD) were determined by phase contrast microscopy and then represented as a function of total blue cells under each condition (n≧3).
In FIG. 10, mammalian expression constructs encoding Fc or the procaspase-9 variants described in FIG. 9 were transfected into MCF-7 cells together with a reporter β-gal expression construct at a ratio of 3:1. […]

procaspase-9 [3] = target: T1, procaspase-9; assay: In vitro caspase 9 activation assay: recombinant Apaf-1 variants incubated with in vitro translated procaspase-9; type: biochemical; settings: in vitro reconstituted system, data not shown
Protocol: SDS sample buffer was then added to each sample, boiled and subjected to SDS-PAGE analysis followed by autoradiography. In FIG. 2A procaspase-9 was in vitro translated in the presence of ^35S-methionine. Following translation procaspase-9 was desalted by gel filtration through a biospin column (BioRad) to remove unincorporated methionine and free nucleotides. Desalted procaspase-9 was then incubated with 200 ng Ni^2+-affinity purified bacterially expressed recombinant Apaf-530 (WT or K149R mutant) in the presence or absence of cytochrome c or dATP or both for 2 h at 30° C. A mock sample containing Ni^2+-affinity purified material from bacteria transformed with an empty vector was used as a negative control. Following incubation the products were analyzed by SDS-PAGE and autoradiography. In FIG. 2B^35S-labeled procaspase-9 (as described above) was incubated with bacterial lysates containing truncated Apaf-1 variants as indicated and then analyzed as above (2B upper panel). The bacterial lysates were analyzed by SDS-PAGE and immunoblotted with an Apaf-1 antibody which recognizes the N-terminus of Apaf-1 (lanes 2-6) and an anti T7-tag antibody (lanes 7-8) to confirm expression and equivalent concentration of the different Apaf-1 variants (2B lowerpanel). The molecular mass markers are indicated to the right of the lower panel.
as §1
To determine the role of the WD-40 repeat in the mechanism of Apaf-1-induced processing of procaspase-9, truncated Apaf-1 (Apaf-530) lacking its WD-40 repeats (FIG. 1) was expressed and purified. To reconstitute a recombinant caspase-9 activation system, the truncated Apaf-530 was incubated with in vitro translated recombinant procaspase-9 in the presence or absence of cytochrome c and dATP. […] It was previously shown that mutation of CED-4 K165R which is required for nucleotide binding destroys its activity (Chinnaiyan et al., Nature 388:728-729, 1997; Jarnes et al., Curr. Biol. 7:246-252, 1997; Seshagiri and Miller, Curr. Biol. 7:455-460, 1997). […] Therefore, either binding of Apaf-1 to cytochrome c and dATP or deletion of the repeats could induce a conformational change enabling Apaf-1 to bind and process procaspase-9.
In FIG. 3, ^35S-labeled WT or mutant D330A, D315A or C287A mutants of procaspase-9 or prodomainless procaspase-9 (Δpro, residues 134-416) were incubated with buffer (lanes 1, 4, 7, 10, 13), purified Apaf-530 (lanes 2, 5, 8, 11, 14) or mock purified material (lanes, 3, 6, 9, 12, 15) and then analyzed by SDS-PAGE and autoradiography.

procaspase-9 [4] = assay: Cytochrome c/dATP-dependent processing of procaspase-9 in 293 cellular S100 extract; type: biochemical; settings: 293 S100 extract, increasing amounts of purified protein, 1 hour at 30° C., dose-dependent, FIG. 18
Protocol: To study processing of procaspase-9 in the cytochrome c/Apaf-1-dependent pathway, WT and the Asp to Ala mutants of procaspase-9 were incubated with a cellular S100 extract in the presence or absence of cytochrome c and dATP. […] Samples were then analyzed by SDS-PAGE and autoradiography.
(§3) To confirm this, a time course analysis of procaspase-9 and procaspase-3 processing was performed in cellular S100 extracts from 293 and MCF-7 cells. […] At the indicated times the reactions were stopped and then analyzed by SDS-PAGE and autoradiography (procaspase-9 panels) or Western blot analysis using anti-caspase-3 p20 polyclonal antibody (procaspase-3 panels). Small arrows indicate a non-specific band detected by the anti-caspase-3 antibody.
(§4) In FIG. 18, 293 cellular S100 extracts supplemented with ^35S-labeled procaspase-9 (upper panel) or procaspase-3 (lower panel) were incubated with (lanes 3-7) or without (lane 2) cytochrome c plus dATP in the presence of increasing amounts of purified recombinant procaspase-9-C287A mutant for 1 hour at 30° C. and then analyzed by SDS-PAGE and autoradiography. […] Consequently, the Apaf-1/caspase-9 pathway appears to be a central apoptotic pathway, on which most apoptotic signals converge.

procaspase-3 = assay: Cytochrome c/dATP-dependent processing of procaspase-3 in 293 cellular S100 extract; type: biochemical; settings: 293 S100 extract, increasing amounts of purified protein, 1 hour at 30° C., dose-dependent, FIG. 18
Protocol: as §3
In FIG. 8, ^35S-labeled procaspase-3, -6 or -7 were incubated with S100 extracts from 293 cells in the presence or absence of cytochrome c/dATP or DEVD-CHO, or both and analyzed by SDS-PAGE followed by autoradiography. However, when DEVD-CHO was included, processing of procaspase-6 (lane 6), but not procaspase-3 (lane 3) or -7 (lane 9) was inhibited. […] Also, since caspase-7 cannot process procaspase-6 (Srinivasula et al., J. Biol. Chem. 271:27099-27106, 1996), caspase-3 is the one responsible for processing of procaspase-6 in the cytochrome c plus dATP-dependent pathway.
as §4

MCF-7 cells [5] = assay: Inhibition of apoptosis in transfected MCF-7 cells; type: cell-based; settings: apoptosis induced by UV, Fas agonist antibody
Text: as §2

[6] = test system: apoptosis induced by the proapoptotic members of the Bcl-2 family; settings: Hegde et al. 1998; Li et al. 1997; cited from earlier work

Row | Molecule | self-processing to large subunit (p35) and small subunit (procaspase-9 [1]) | induction of apoptosis (MCF-7 cells [2]) | attenuation of Apaf-530-induced activation of procaspase-9 (procaspase-9 [3]) | attenuation of cytochrome c/dATP-induced activation of procaspase-9 (procaspase-9 [4]) | attenuation of cytochrome c/dATP-induced activation of procaspase-3 (procaspase-3) | inhibition of apoptosis (MCF-7 cells [5]; TRAIL, or overexpression of DR4 and DR5, FIG. 17) | inhibition of apoptosis (MCF-7 cells [5]; TRAIL, or overexpression of DR4 and DR5, FIG. 17, listed as dominant negative caspase-9 mutant) | inhibition of apoptosis induced by the proapoptotic members of the Bcl-2 family [6]
1 | B1 | incapable of processing | induced little apoptosis | – | – | – | – | – | –
2 | B2 | – | – | A similar result | able to attenuate | able to attenuate | can also inhibit apoptosis | as efficient as that observed with Bcl-xL or X-IAP | can inhibit apoptosis
